Experiment: soluble on expression in E. coli; label from the status in PepcDB or PDB records

Question: Which “soluble on expression in E. coli” value does the source give for “MTEKKIDFKKEEKKFYAPKRKPERIFVPEMNFLMVDGKGDPDGEEYQKAVQSLYAIAYTIKMSKMGETRLDGYSDFVVPPLEGFWWSEGKFDLKDRDAWLWTSILRQPDFVTEEVLEWAKEVARKKKPDVDTSRVKLVRFEEGECVQMMHVGPFSEEVHTVAEMHQFMETEGLRNDTGAIRKHHEIYLSDPRKANPEKMKTILRLPVS” here?
Answer: The value was “soluble”.

Question: For “MTENERAHADHASASPQRTRRRRGKPRRRMDSGASTQGGGASKSAAPSSSTSGSRGERGSRGDDKDKQNKHTRRKRRPAHRSTQRGSHGGDSSNSGSGIKRRRHTGNKNRGNQSRRQNNRSSRITTRDETSAGGLVISGLAEAVDENNNVDLSRIYVALIGRL”, which “soluble on expression in E. coli” value is on record?
Answer: The value was “not soluble”.

Question: Which “soluble on expression in E. coli” value does the source give for “MTENKGIMLAKSVQKHAGRAKEKILQNLGKVDRTADEIFDDHLNNFNRQQASANRLQKEFNNYIRCVRAAQAASKTLMDSVCEIYEPQWSGYDALQAQTGASESLWADFAHKLGDQVLIPLNTYTGQFPEMKKKVEKRNRKLIDYDGQRHSFQNLQANANKRKDDVKLTKGREQLEEARRTYEILNTELHDELPALYDSRILFLVTNLQTLFATEQVFHNETAKIYSELEAIVDKLATESQRGS” here?
Answer: Its value is “soluble”.

Question: With “MTEPKEERRERRMSSPIMPENMSDFDLIVGEIEAENGAEGSFQRAAECFKLIEDRVSEDPDLSEIMENIRMNQGCEVSGMSTGLSSTATTVSSKMASQWISHMKRSFKRRAICLSEEQQSAMRKMVTEELYTQHGPADLAVRDILLLYSRGLEAHHDGRYREMFERLRPCIPYFNTNVLVWIRISEALIYEYYEETWEFNDIYDRLFEKQPHHYMPSVRRRCNEMRPRHPDMTLRFAETATLMCFALAKQSSREPVHYAAAALHGFMLLKLRKYSEAIEAVNFAVERYDRAGEWQDDLAILLTYKAEGMIGIGRYNRAIEYALRVMNAAKCARARQRATMLVVMAYMRKRNYLKAHEYVIKLLKEGKLDEVMLENVALLGLNLAHLMGNMKLFKRFESMLQRIVY” as the sequence, how does the “soluble on expression in E. coli” value read?
Answer: The value was “not soluble”.

Question: With “MTEQMWIEKLGLEAHPEGGYFKQTNKSEQLIPTKRGERALHTAILFLLNTESPSHFHRLKADELWFFHDGQPLTVHCIFPDGTYQAVQLGKDLVQGQQLSFSVPAGTIFGSTVATGFALVSCVVTPGFEFEDFELFTQAELLNDYPQHSEIIQHLAYRELPLEHHHHHH” as the sequence, how does the “soluble on expression in E. coli” value read?
Answer: The value was “soluble”.

Question: With “MTEQVLFSVSENGVATITLNRPKALNSLSYDMLQPIGQKLKEWEHDERIALIVLKGAGTKGFCAGGDIKTLYEARSNEVALQHAERFFEEEYEIDTYIYQYTKPIIACLDGIVMGGGVGLTNGAKYRIVTERTKWAMPEMNIGFFPDVGAAYFLNKAPGYTGRFVALTASILKASDVLFINAADYFMTSDSLPEFLTELESVNWHKEDDVHTNLKEVIRTFATAPNLESELAPSLEVINSHFAFDTIEEIIHSLEKDESSFALKTKEILLSKSPISLKVTLKQFIDGQDKSVEECFATDLILAKNFMRHEDFFEGVRSVVVDKDQNPNYKYKQLSDVSEEDVNRFFNLLNA” as the sequence, how does the “soluble on expression in E. coli” value read?
Answer: The value was “not soluble”.

Question: Which “soluble on expression in E. coli” value does the source give for “MTESKTAIIFDMDGVLVDSEAYYYERRKAFLAEFDLTIEGLTLPELVGADMRSLWQKIEQVNKKELDIAFLNEQYIAYKKAHPIDYLAVLDENAKRVLQFLKRQGYKIGLASSSTKDAIEEVLTVGQLSSYFDAVVSGEDFEESKPAPDIYLHTLQELAVAPQECIAIEDSEKGIASAKEAGLEVWAMRDEHFGMDQSQADAFLTQLSDICKKISENRIDESSESTPS” here?
Answer: Its value is “not soluble”.

Question: For “MTEVRRRGRPGQAEPTAQKGAQALERGIAILQYLERSGGSSSVSDISGSLDLPLSTTFRLLKVLQAADFVYQDSQLGWWHIGLGVFNVGSAYIHNRDVLSVAGPFMHRLMLLSGETVNVAIRNGNEAVLIGQKECKSMVRMCAPLGSRLPLHASGAGKALLYPLTEEELVGIVVNTGLRRFTPTTLVDLPILLKNLEQAREQGYTVDQEEHVVGLNCIASAIYDDAGSVVAAISISGPASRLTEDRFISQGELVRDTAKDISTALGLKPPVA”, which “soluble on expression in E. coli” value is on record?
Answer: The value was “not soluble”.

Question: With “MTEVRRRGRPGQAEPVAQKGAQALERGIAILQYLEKSGGSSSVSDISLNLDLPLSTTFRLLKVLQAADFVYQDSQLGWWHIGLGVFNVGAAYIHNRDVLSVAGPFMRRLMLLSGETVNVAIRNGNEAVLIGQLECKSMVRMCAPLGSRLPLHASGAGKALLYPLAEEELMSIILQTGLQQFTPTTLVDMPTLLKDLEQARELGYTVDKEEHVVGLNCIASAIYDDVGSVVAAISISGPSSRLTEDRFVSQGELVRDTARDISTALGLKAHP” as the sequence, how does the “soluble on expression in E. coli” value read?
Answer: Its value is “soluble”.

Question: With “MTGDKEIITMTFKIWQIGLHLQQQEAAAVAIVRGAKECFLQRWWRLPLAHDIIKDGRIVDAQQLAKTLLPWSRELPQRHHIMLAFPASRTLQRSFPRPSMSLGEREQTAWLSGTMARELDMDPDSLRFDYSEDSLSPAYNVTAAQSKELATLLTLAERLRVHVSAITPDASALQRFLPFLPSHQQCLAWRDNEQWLWATRYSWGRKLAVGMTSAKELAAALSVDPDSVAICGEGGFDPWEAVSVRQPPLPPPGGDFAIALGLALGKAY” as the sequence, how does the “soluble on expression in E. coli” value read?
Answer: Its value is “not soluble”.

Question: Which “soluble on expression in E. coli” value does the source give for “MTGEKLLYIETFGCQMNVSDSEKVASLLRGEGYSQTPDSSEADLIIVNTCSVRAKAEHKVYSYLGRFRKLKRDRRLLLGVGGCVAQQEGERLLKRVPWLDLVFGTHNLHLLPEMVRAAEQGERRAAVDFIDNEARLDLFPQADEGGGVTRFVTVMQGCDNFCSYCIVPYVRGREISRRSVEIIGEIRSAVAGGVREVTLLGQNVNSYGLKTPGELSFAGLLREISAIDGLERIRFTTSHPKDISPELIACFAELPKLCGHIHLPAQAGSDSILARMNRGYTRQEYLEKVAALRAARPEILITGDIIVGFPGETEADFLQTLSLMEEVRYTDIFSFAYSPRPETAAASLGDRIMRKETTERLERVQGLQRDMTIERHAGFVGTCQAVLVEGMSKRGDQLYGRTDGNLIVNFAGNPSLAGSLVDVRITRGYPNSLLGELAVFQ” here?
Answer: Its value is “soluble”.

Question: Which “soluble on expression in E. coli” value does the source give for “MTHALLIGNPNCGKTTLFNALTNANQRVGNWPGVTVEKKTGEFLLGEHLIEITDLPGVYSLVANAEGISQDEQIAAQSVIDLEYDCIINVIDACHLERHLYLTSQLFELGKPVVVALNMMDIAEHRGISIDTEKLESLLGCSVIPIQAHKNIGIPALQQSLLHCSQKIKPLKLSLSVAAQQILNDLENQLISKGYKNSFAYYFSRRLAEGDTLIGEKAFTESLLIKLQETEQNLDVLLADARYQKIHEIVTLVQKK” here?
Answer: Its value is “soluble”.

Question: Which “soluble on expression in E. coli” value does the source give for “MTHIYEPRLSRIAIDKLRPTQIAVGFREVELKRKEWRETRKKDGDDFLGNHIVPVVAGPKDRAYLIDHHHLVLALSKEGVEHVLTSEVAKFSHLGKDEFWSVMDHRNLIYPFDAQGLRRQSGDIPKNIHDLEDDPFRSLAGALRMAGGYAKVIIPFSEFGWADFLRRRIDRDLLSDSFDDALAEAMKLAKSREARHLPGWCGVEEAAALEHHHHHH” here?
Answer: Its value is “soluble”.

Question: For “MTHNQSTALLTDMYELTMLQSALADGTAERQCTFEVFGRRLPNERRYGVVAGTPRVLEAVQNFRFTEAQLASLTFLNDTTLEYLRNYRFAGHIDGYREGELYFPHSPILTVRGTFAECVILETVILSIMNADSAVATAAARMVTAADGRTIIEMGSRRTHEYAAVTATRAAYLAGFSATSNLEAVHRYGIPGSGTAAHAWTLLHVNEDGTPNEKSAFESQVRAQGTGTTLLIDTYDIAQGVRNAIEVAGPELGAVRIDSGDLGVMTRKIRQELDNLGAHNTQIVVSSDLDEYAIAGLRGNPVDVFGVGTSVVTGSGAPTAGMVYKLVEVDGNPVSKRSRGKGMLGGAKRAARTHRASGTAVEELVFPYEHPVPQVGTLTSVELTIPLMRDGVVVEGLPTLEESRAYLAQQLVTIPWEGLALSRDEPVLATRHVGFDQLEHHHHHH”, which “soluble on expression in E. coli” value is on record?
Answer: Its value is “soluble”.

Question: With “MTHQIVTTQYGKVKGTTENGVHKWKGIPYAKPPVGQWRFKAPEPPEVWEDVLDATAYGPICPQPSDLLSLSYTELPRQSEDCLYVNVFAPDTPSQNLPVMVWIHGGAFYLGAGSEPLYDGSKLAAQGEVIVVTLNYRLGPFGFLHLSSFDEAYSDNLGLLDQAAALKWVRENISAFGGDPDNVTVFGESAGGMSIAALLAMPAAKGLFQKAIMESGASRTMTKEQAASTAAAFLQVLGINESQLDRLHTVAAEDLLKAADQLRIAEKENIFQLFFQPALDPKTLPEEPEKSIAEGAASGIPLLIGTTRDEGYLFFTPDSDVHSQETLDAALEYLLGKPLAEKAADLYPRSLESQIHMMTDLLFWRPAVAYASAQSHYAPVWMYRFDWHPEKPPYNKAFHALELPFVFGNLDGLERMAKAEITDEVKQLSHTIQSAWITFAKTGNPSTEAVNWPAYHEETRETVILDSEITIENDPESEKRQKLFPSKGE” as the sequence, how does the “soluble on expression in E. coli” value read?
Answer: The value was “soluble”.

Question: For “MTHRTKTRPVKVGNLTIGGNNELIIQSMTTTKTHDVEATVAEIKRLEEAGCQVVRVAVPDERAANAIADIKKQINIPLVADIHFDYRLALKAIEGGIDKVRINPGNIGRRHKVEAVVNAAKERGIPIRIGVNAGSLERHILEKYGYPTADGMVESALHHIKILEDLDFHDIIVSMKASDVNLAIEAYEKAARAFDYPLHLGITESGTLFAGTVKSAAGLGAILNKGIGNTLRISLSADPVEEVKVARELLKSFGLASNAATLISCPTCGRIEIDLISIANEVEEYISTLQVPIKVAVLGCAVNGPGEAREADIGIAGARGEGLLFRKGQVVRKVPEEIMVEELKKEIDVIAAEMAAEREKEKETQEQ”, which “soluble on expression in E. coli” value is on record?
Answer: Its value is “not soluble”.

Question: Which “soluble on expression in E. coli” value does the source give for “MTIAQQERPVAASPYRFEAEMTSGLERVAAHHHDLTLTSVFQPIFSLSHMRAVGYEALLRAHDALDRPVSPLDVFGEAARHGEAAQVDRLAQALHLENFARFGAEREWLFLNVHPGVLTDPFQAAALFANLKRLEIPPRRIVLEVLEQRADDIERLADAVREFREQGFLIALDDFGAGHSNIERIWQLNPDIVKLDRIMLSHAQHRAGLTAILHGLVTLLHEAGKLVLIEGIETEHEAQIALACDADFVQGHFFGRPAPGLPDGAAASACIGELTERYRQQAEASERRDAQRLAPYQRAFERAAERLAAGEPLDEVCWNFLALDHAARCFLLDERGRQAGRNVVRRADRARHETRFLPLADAQGANWLRRPYFRSAIAAPGRVQATRPYLSINEALPCVTLSIAVRVHDALCVLCGDIDWIDDEASMSA” here?
Answer: The value was “soluble”.

Question: Which “soluble on expression in E. coli” value does the source give for “MTISVEKPIFEEEVSAFEKSGDNIGELKLDGGFSMPKMDTNDDEAFLAPEMNAFGRQFRDYDVESERQKGVEEFYRLQHINQTVDFVKKMRAEYGKLDKMVMSIWECCELLNEVVDESDPDLDEPQIQHLLQSAEAIRKDYPNEDWLHLTALIHDLGKVITLPQFGGLPQWAVVGDTFPVGCAFDESNVHHKYFVENPDFHNETYNTKNGIYSEGCGLNNVMMSWGHDDYMYLVAKENGSTLPSAGQFIIRYHSFYPLHTAGEYTHLMNEEDKENLKWLHVFNKYDLYSKSKVHVDVEKVKPYYMSLIKKYFPENLRW” here?
Answer: The value was “soluble”.

Question: With “MTITALTVTLPLLWRRLTTAGVKYADQGHFVGSAGVPAADAGGRDAASEQIARWTQTCTVVLVCGHGPAKWAFRSWCTSRSCDTLPVALRYRLQSNPLVGKLTTKYFLPLGTRQVGDHVVFFNFGYEEDPPMALPLSESDEPNRYCIQLYHQTASQVDLTGKEVLEVSCGAGGGASYIARNLGPASYTGLDLNPASIDLCRAKHRLPGLQFVQGDAQNLPFPDESFDAVVNVEASHQYPDFRGFLAEVARVLRPGGHFLYTDSRRNPVVAEWEAALADAPLRTISQRDIGAQAKRGLDANTARSQEAIGRRAPVLLAGLTRCAVRVLDWDLRRGGGFSYRIYLFAKD” as the sequence, how does the “soluble on expression in E. coli” value read?
Answer: Its value is “not soluble”.

Question: With “MTIYTCTLNLAIDLFIETEELVPFVVNRTKEDDIQANGKGVNVSLILKMLGIDNTALGVKAGFTGNYVEDYLKEKEITTDFIEVAGTTRINVFTKVTQDQKEYKLVNKGPKLSEEHVQRFLKKISELRKGDYLCVSGSLPQGVSPSILIEISRICFEKQVFLILDSSYEEILDCLPYQPFLLKPNEEELQEWFHTEVQTKDDYIFYGQELLKRGAKNILLSLGSEGALFMNNEKVLSGNSPTGMVVNTACSGDAMLGTFLAGWHQGLSLEKNLKRSIAAGSSTAFRKGLTDFSDVQELEQQIKIQEEE” as the sequence, how does the “soluble on expression in E. coli” value read?
Answer: The value was “not soluble”.
